Measurements taken from patent publication US5849890, “High affinity oligonucleotide ligands to chorionic gonadotropin hormone and related glycoprotein hormones” (NeXstar Pharmaceuticals, Inc.).

target: T1, human chorionic gonadotropin (hCG) heterodimer (Homo sapiens, UniProt P01215;P0DN86 P01215:25-116,P0DN86:21-165); test: filter; conditions: tags: Calbiochem or Vitro Diagnostics (14,000 IU/mg); chain copies: alpha/beta heterodimer (stated); label: 32P
T1 sequence (P01215 25-116, chain 1 of 2, other chains not shown): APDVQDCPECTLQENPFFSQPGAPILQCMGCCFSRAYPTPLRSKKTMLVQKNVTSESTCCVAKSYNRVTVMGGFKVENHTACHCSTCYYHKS

Binder	binding signal
Class 1 ligand 30 (ssRNA, 2'-F all pyrimidines) RNA: GGGAGACAAGAAUAAACGCUCAAAAGUCACUCGCAGCGCUUCCUGGUUCGAUUGAACGAUCCUUUCGACAGGAGGCUCACAACAGGC	0.58 % bound at 100 nM
Class 1 ligand 4 (ssRNA, 2'-F all pyrimidines) RNA: GGGAGACAAGAAUAAACGCUCAAUUUGGAAGAUCCCGGAGUCUCGUUGGUGUUGAACGAUUCUUCGACAGGAGGCUCACAACAGGC	4.81 % bound at 100 nM
Class 1 ligand 37 (ssRNA, 2'-F all pyrimidines) RNA: GGGAGACAAGAAUAAACGCUCAAUUUGGAAGGUCCUGAGUCUCGUUGGUCGUUGAACGAUCCUUCGACAGGAGGCUCACAACAGGC	1.89 % bound at 100 nM
Class 1 ligand 8 (ssRNA, 2'-F all pyrimidines) RNA: GGGAGACAAGAAUAAACGCUCAAGUGCCCUGUUAUCUUCCUCGAUCGAUUGAACGAUCCUUUCGACAGGAGGCUCACAACAGGC	0.98 % bound at 100 nM
Class 1 ligand 20 (ssRNA, 2'-F all pyrimidines) RNA: GGGAGACAAGAAUAAACGCUCAAGUCAUAAGCCUAACGGUCCCUAGUCAAUUGAACGAUCCUUCGACAGGAGGCUCACAACAGGC	0.13 % bound at 100 nM
Class 1 ligand 56 (ssRNA, 2'-F all pyrimidines) RNA: GGGAGACAAGAAUAAACGCUCAAUUUGGAAGAUCCCUGGAGUCUCGUUGGUCGUUGAACGAUCCUUCGACAGGAGGCUCACAACAGGC	3.85 % bound at 100 nM
Class 1 ligand 43 (ssRNA, 2'-F all pyrimidines) RNA: GGGAGACAAGAAUAAACGCUCAACCAGAUAAUCCCAAUGAGUCCCUCGAGAUUGAACGAUCCUUUCGACAGGAGGCUCACAACAGGC	0.93 % bound at 100 nM
Class 1 ligand 11 (ssRNA, 2'-F all pyrimidines) RNA: GGGAGACAAGAAUAAACGCUCAAUUUAGAAGAUCCCGGAGUCUCGUUGGUCGUUGAACGAUCCUUCGACAGGAGGCUCACAACAGGC	3.09 % bound at 100 nM
Class 1 ligand 16 (ssRNA, 2'-F all pyrimidines) RNA: GGGAGACAAGAAUAAACGCUCAAUUCGGAAGAUCCCAGAGUCUCGUUGGUCGUUGAACGAUCCUUCGACAGGAGGCUCACAACAGGC	5.41 % bound at 100 nM
Class 1 ligand 10 (ssRNA, 2'-F all pyrimidines) RNA: GGGAGACAAGAAUAAACGCUCAAUUCGGAAGAUCACGGAGUCUCGUUGGUCGUUGAACGAUCCUUCGACAGGAGGCUCACAACAGGC	3.59 % bound at 100 nM
Class 1 ligand 18 (first SELEX) (ssRNA, 2'-F all pyrimidines) RNA: GGGAGACAAGAAUAAACGCUCAAUUUCGAAGAUCCCUGAGUCUCGUUGGUCGUUGAACGAUCCUUCGACAGGAGGCUCACAACAGGC	2.69 % bound at 100 nM
Class 1 ligand 40 (ssRNA, 2'-F all pyrimidines) RNA: GGGAGACAAGAAUAAACGCUCAAUUCUGAAGAUCCCAGAGUCUCGUUGGUCGUUGAACGAUCCUUCGACAGGAGGCUCACAACAGGC	2.2 % bound at 100 nM
Class 1 ligand 26 (ssRNA, 2'-F all pyrimidines) RNA: GGGAGACAAGAAUAAACGCUCAAUUUGGAAGAUCCCUGAGUCUCGUUGGUCGUUGAACGAUCCUUCGACAGGAGGCUCACAACAGGC	3.34 % bound at 100 nM
Class 1 ligand 49 (ssRNA, 2'-F all pyrimidines) RNA: GGGAGACAAGAAUAAACGCUCAAUUUGGAAGAUCCCGAGAUCUCGUUGGUCGUUGAACGAUCCUUCGACAGGAGGCUCACAACAGGC	3.77 % bound at 100 nM
Class 1 ligand 5 (ssRNA, 2'-F all pyrimidines) RNA: GGGAGACAAGAAUAAACGCUCAAAUUGGAGUAUCCCUGAGUCUUGUUGGUCGUUGAACGGUCCUUCGACAGGAGGCUCACAACAGGC	1.26 % bound at 100 nM

target: T1, human chorionic gonadotropin (hCG) …; test: filter; conditions: tags: Calbiochem or Vitro Diagnostics (14,000 IU/mg); chain copies: alpha/beta heterodimer (stated); label: 32P; remark: another data set of the same source

Binder	binding signal
2nd generation ligand 10 (ssRNA, 2'-F all pyrimidines) RNA: GGGAGGACGAUGCGGAACACCAAUCUUUUUGAACGAUCCUUCGUGGGAGUGCAUCAGACGACUCGCCCGA	0 % bound at 100 nM
2nd generation ligand 98 (ssRNA, 2'-F all pyrimidines) RNA: GGGAGGACGAUGCGGGUUCCAGUAUUAGUUGAACGAUCCUUCUUAUCUGGAGUCCAGACGACUCGCCCGA	11.7 % bound at 100 nM
2nd generation ligand 23 (ssRNA, 2'-F all pyrimidines) RNA: GGGAGGACGAUGCGGGUUUAAUACAAAGUUGAACGAUCCUUCUUUGCAUUGGACCAGACGACUCGCCCGA	13 % bound at 100 nM
2nd generation ligand (SEQ 118) (ssRNA, 2'-F all pyrimidines) RNA: GGGAGGACGAUGCGGGUUCGACAUAAUCUUGAACGAUCCUUGAUUACUUGGUCCCAGACGACUCGCCCGA	13 % bound at 100 nM
2nd generation ligand 74 (ssRNA, 2'-F all pyrimidines) RNA: GGGAGGACGAUGCGGUAAGUUCUAACUUUUGAACGAUCCUUGGCACCCUGACUACAGACGACUCGCCCGA	11.5 % bound at 100 nM
2nd generation ligand 73 (ssRNA, 2'-F all pyrimidines) RNA: GGGAGGACGAUGCGGGGUUUUCUAAGUGUUGAACGAUCCUUCACAUAGCGUGUCCCAGACGACUCGCCCGA	0.84 % bound at 100 nM
2nd generation ligand 20 (ssRNA, 2'-F all pyrimidines) RNA: GGGAGGACGAUGCGGUGUUCAUGCUUGAUUGAACGAUCCUUUCAUAGUGUUGGUCAGACGACUCGCCCGA	8.37 % bound at 100 nM
2nd generation ligand 42 (ssRNA, 2'-F all pyrimidines) RNA: GGGAGGACGAUGCGGGUUCGAAACUUCCUUGAACGAUCCUUGGAUGUUUUGCUCAGACGACUCGCCCGA	0.54 % bound at 100 nM
2nd generation ligand 33 (ssRNA, 2'-F all pyrimidines) RNA: GGGAGGACGAUGCGGUUCGAUGGCCAUUUGAACGAUCCUUAUUAUCAACGGUCCAGACGACUCGCCCGA	0.59 % bound at 100 nM
2nd generation ligand 11 (ssRNA, 2'-F all pyrimidines) RNA: GGGAGGACGAUGCGGGAUUCUCUUUGAGUUGAACGAUCCUUCUCAUCGCACUUGCCAGACGACUCGCCCGA	10 % bound at 100 nM
2nd generation ligand 86 (ssRNA, 2'-F all pyrimidines) RNA: GGGAGGACGAUGCGGUUCAACAACGUACUUGAACGAUCCUUGUGCUCGUUGAUCCAGACGACUCGCCCGA	0.57 % bound at 100 nM
2nd generation ligand 83 (ssRNA, 2'-F all pyrimidines) RNA: GGGAGGACGAUGCGGUUUGAUGAGGUAGUUGAACGAUCCUUCCAUCCGUUAGACCAGACGACUCGCCCGA	4.48 % bound at 100 nM
2nd generation ligand 52 (ssRNA, 2'-F all pyrimidines) RNA: GGGAGGACGAUGCGGGAUUUUCCGUUAAUUGAACGAUCCUUUUCACGGACUGCAGACGACUCGCCCGA	6.01 % bound at 100 nM
2nd generation ligand 25 (ssRNA, 2'-F all pyrimidines) RNA: GGGAGGACGAUGCGGUUCCUGAUUCAAGUUGAACGAUCCUUCCUGCUGUACGUCCAGACGACUCGCCCGA	0.28 % bound at 100 nM
2nd generation ligand 9 (ssRNA, 2'-F all pyrimidines) RNA: GGGAGGACGAUGCGGUUCUACACGAUAUUUGAACGAUCCUUGUAUCUUAGGUCCCAGACGACUCGCCCGA	9.98 % bound at 100 nM
2nd generation ligand 5 (ssRNA, 2'-F all pyrimidines) RNA: GGGAGGACGAUGCGGGUUUAAUCUCGGAUUGAACGAUCCUUUCUGUAAUUAGUCCAGACGACUCGCCCGA	3.14 % bound at 100 nM
2nd generation ligand 14 (ssRNA, 2'-F all pyrimidines) RNA: GGGAGGACGAUGCGGUUCGACACGAAAGUUGAACGAUCCUUCUAUCUGUUGGACCAGACGACUCGCCCGA	15.4 % bound at 100 nM
2nd generation ligand 88 (ssRNA, 2'-F all pyrimidines) RNA: GGGAGGACGAUGCGGUUCGUUACGAUAAUUGAACGAUCCUUUUAUCUUUCAGUCCAGACGACUCGCCCGA	0.32 % bound at 100 nM
2nd generation ligand 69 (ssRNA, 2'-F all pyrimidines) RNA: GGGAGGACGAUGCGGGUUUCACUUCAAGUUGAACGAUCCUUCUUGGCUUGAGCACAGACGACUCGCCCGA	18.8 % bound at 100 nM
2nd generation ligand 93 (ssRNA, 2'-F all pyrimidines) RNA: GGGAGGACGAUGCGGUUCUAGGUCGAAAUUGAACGAUCCUUUUUCGCUAUGGAUCAGACGACUCGCCCGA	7.25 % bound at 100 nM
2nd generation ligand 91 (ssRNA, 2'-F all pyrimidines) RNA: GGGAGGACGAUGCGGUUCAUUUUUGUGUUGAACGAUCCUUCACUAACCUACCACAGACGACUCGCCCGA	2.36 % bound at 100 nM
2nd generation ligand 49 (ssRNA, 2'-F all pyrimidines) RNA: GGGAGGACGAUGCGGUUCGUCAUCGCUAUUGAACGAUCCUUUAGCUGAUGGACCAGACGACUCGCCCGA	14.4 % bound at 100 nM
2nd generation ligand 58 (ssRNA, 2'-F all pyrimidines) RNA: GGGAGGACGAUGCGGUCUUAAGUUUGAAUUGAACGAUCCUUUUCUUCCAGGCAACAGACGACUCGCCCGA	0 % bound at 100 nM
2nd generation ligand 71 (ssRNA, 2'-F all pyrimidines) RNA: GGGAGGACGAUGCGGAUUCGAUUAGAGAUUGAACGAUCCUUUCAUCAGUUGGAUCAGACGACUCGCCCGA	6.99 % bound at 100 nM
2nd generation ligand 19 (ssRNA, 2'-F all pyrimidines) RNA: GGGAGGACGAUGCGGUUUGACGUAUAAUUGAACGAUCCUUUUCUAGCUUAGACCAGACGACUCGCCCGA	8.52 % bound at 100 nM
2nd generation ligand 72 (ssRNA, 2'-F all pyrimidines) RNA: GGGAGGACGAUGCGGAUUCGAUGUAGUUUGAACGAUCCUUGUAUAUAUCGGAUCAGACGACUCGCCCGA	0.3 % bound at 100 nM
2nd generation ligand 61 (ssRNA, 2'-F all pyrimidines) RNA: GGGAGGACGAUGCGGUUUAGUGUUUAGUUGAACGAUCCUUCUAACACCAGUCCCAGACGACUCGCCCGA	15.5 % bound at 100 nM
2nd generation ligand 89 (ssRNA, 2'-F all pyrimidines) RNA: GGGAGGACGAUGCGGUGCAUGAUUUAGUUGAACGAUCCUUCCAACUUCCAGCACAGACGACUCGCCCGA	0.21 % bound at 100 nM
